B1: variant CD80 IgV-Fc E35D/D46V/M47L/V68M/L85Q (Fc fusion)
chain: VIHVTKEVKEVATLSCGHNVSVEELAQTRIYWQKDKKMVLTMMSGVLNIWPEYKNRTIFDITNNLSIMILALRPSDEGTYECVVQKYEKDAFKREHLAEVTLSVKAD
B2: variant CD80 IgV-Fc H18Y/A26E/M47L/D90G (Fc fusion)
chain: VIHVTKEVKEVATLSCGYNVSVEELEQTRIYWQKEKKMVLTMMSGDLNIWPEYKNRTIFDITNNLSIVILALRPSDEGTYECVVLKYEKGAFKREHLAEVTLSVKAD
B3: variant CD80 IgV-Fc A26E/E35D/V68M/D90G (Fc fusion)
chain: VIHVTKEVKEVATLSCGHNVSVEELEQTRIYWQKDKKMVLTMMSGDMNIWPEYKNRTIFDITNNLSIMILALRPSDEGTYECVVLKYEKGAFKREHLAEVTLSVKAD
B4: variant CD80 IgV-Fc H18Y/A26E/V68M/A71G (Fc fusion)
chain: VIHVTKEVKEVATLSCGYNVSVEELEQTRIYWQKEKKMVLTMMSGDMNIWPEYKNRTIFDITNNLSIMILGLRPSDEGTYECVVLKYEKDAFKREHLAEVTLSVKAD
B5: variant CD80 IgV-Fc A26E/E35D/M47L/D90G (Fc fusion)
chain: VIHVTKEVKEVATLSCGHNVSVEELEQTRIYWQKDKKMVLTMMSGDLNIWPEYKNRTIFDITNNLSIVILALRPSDEGTYECVVLKYEKGAFKREHLAEVTLSVKAD
B6: variant CD80 IgV-Fc M47L/V68M/A71G/D90G (Fc fusion)
chain: VIHVTKEVKEVATLSCGHNVSVEELAQTRIYWQKEKKMVLTMMSGDLNIWPEYKNRTIFDITNNLSIMILGLRPSDEGTYECVVLKYEKGAFKREHLAEVTLSVKAD
B7: variant CD80 IgV-Fc M47V/N48K/K89N (Fc fusion)
chain: VIHVTKEVKEVATLSCGHNVSVEELAQTRIYWQKEKKMVLTMMSGDVKIWPEYKNRTIFDITNNLSIVILALRPSDEGTYECVVLKYENDAFKREHLAEVTLSVKAD
B8: variant CD80 IgV-Fc E35D/M47L/A71G/D90G (Fc fusion)
chain: VIHVTKEVKEVATLSCGHNVSVEELAQTRIYWQKDKKMVLTMMSGDLNIWPEYKNRTIFDITNNLSIVILGLRPSDEGTYECVVLKYEKGAFKREHLAEVTLSVKAD
B9: variant CD80 IgV-Fc A26E/M47L/A71G/D90G (Fc fusion)
chain: VIHVTKEVKEVATLSCGHNVSVEELEQTRIYWQKEKKMVLTMMSGDLNIWPEYKNRTIFDITNNLSIVILGLRPSDEGTYECVVLKYEKGAFKREHLAEVTLSVKAD
B10: variant CD80 IgV-Fc A26E/V68M/A71G/D90G (Fc fusion)
chain: VIHVTKEVKEVATLSCGHNVSVEELEQTRIYWQKEKKMVLTMMSGDMNIWPEYKNRTIFDITNNLSIMILGLRPSDEGTYECVVLKYEKGAFKREHLAEVTLSVKAD
B11: variant CD80 IgV-Fc H18Y/V68M/A71G/D90G (Fc fusion)
chain: VIHVTKEVKEVATLSCGYNVSVEELAQTRIYWQKEKKMVLTMMSGDMNIWPEYKNRTIFDITNNLSIMILGLRPSDEGTYECVVLKYEKGAFKREHLAEVTLSVKAD
B12: variant CD80 IgV-Fc H18Y/M47L/V68M/D90G (Fc fusion)
chain: VIHVTKEVKEVATLSCGYNVSVEELAQTRIYWQKEKKMVLTMMSGDLNIWPEYKNRTIFDITNNLSIMILALRPSDEGTYECVVLKYEKGAFKREHLAEVTLSVKAD
B13: variant CD80 IgV-Fc E35D/N48K/K89N (Fc fusion)
chain: VIHVTKEVKEVATLSCGHNVSVEELAQTRIYWQKDKKMVLTMMSGDMKIWPEYKNRTIFDITNNLSIVILALRPSDEGTYECVVLKYENDAFKREHLAEVTLSVKAD
B14: variant CD80 IgV-Fc H18Y/A26E/V68M/D90G (Fc fusion)
chain: VIHVTKEVKEVATLSCGYNVSVEELEQTRIYWQKEKKMVLTMMSGDMNIWPEYKNRTIFDITNNLSIMILALRPSDEGTYECVVLKYEKGAFKREHLAEVTLSVKAD
B15: variant CD80 IgV-Fc E35D/N48K (Fc fusion)
chain: VIHVTKEVKEVATLSCGHNVSVEELAQTRIYWQKDKKMVLTMMSGDMKIWPEYKNRTIFDITNNLSIVILALRPSDEGTYECVVLKYEKDAFKREHLAEVTLSVKAD

Key:
human PD-L1 (human) [1] = target: human PD-L1 (human) (UniProt Q9NZQ7); assay: flow cytometry; PD-L1 MFI over CD28 MFI of the same protein
human PD-L1 (human) [2] = target: human PD-L1 (human) (UniProt Q9NZQ7); assay: flow cytometry, CHO cells expressing huPD-L1
human PD-L1 (human) [3] = target: human PD-L1 (human) (UniProt Q9NZQ7); assay: flow cytometry, CHO/huPD-L1 cells; vs WT CD80 ECD-Fc (Abcam)
human CTLA-4 (human) [4] = target: human CTLA-4 (human) (UniProt P16410); assay: flow cytometry, CHO cells expressing huCTLA-4
human CTLA-4 (human) [5] = target: human CTLA-4 (human) (UniProt P16410); assay: flow cytometry, CHO/huCTLA-4 cells; vs WT CD80 ECD-Fc (Abcam)
CD28 (human) [6] = target: CD28 (human) (UniProt P10747); assay: flow cytometry, Jurkat/IL2 reporter cells (CD28)
CD28 (human) [7] = target: CD28 (human) (UniProt P10747); assay: flow cytometry, Jurkat cells (CD28); vs WT CD80 ECD-Fc (Abcam)
CD28 (human) [8] = target: CD28 (human) (UniProt P10747); assay: flow cytometry, Jurkat cells (CD28)
human PD-L1 (human) [9] = target: human PD-L1 (human) (UniProt Q9NZQ7); assay: flow cytometry, CHO cells stably expressing PD-L1
human PD-L1 (human) [10] = target: human PD-L1 (human) (UniProt Q9NZQ7); assay: flow cytometry, MFI on PD-L1 cells over MFI on CD28 cells
human CTLA-4 (human) [11] = target: human CTLA-4 (human) (UniProt P16410); assay: flow cytometry, CHO cells stably expressing CTLA4

human PD-L1 (human), sequence (Q9NZQ7 19-290): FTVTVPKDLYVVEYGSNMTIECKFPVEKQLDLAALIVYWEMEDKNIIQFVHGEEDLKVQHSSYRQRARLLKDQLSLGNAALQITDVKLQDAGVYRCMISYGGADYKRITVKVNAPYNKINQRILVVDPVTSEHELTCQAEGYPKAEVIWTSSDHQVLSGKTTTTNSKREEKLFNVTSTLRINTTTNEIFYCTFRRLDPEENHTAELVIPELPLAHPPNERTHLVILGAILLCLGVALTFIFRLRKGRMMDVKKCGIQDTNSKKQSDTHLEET
human CTLA-4 (human), sequence (P16410 36-223): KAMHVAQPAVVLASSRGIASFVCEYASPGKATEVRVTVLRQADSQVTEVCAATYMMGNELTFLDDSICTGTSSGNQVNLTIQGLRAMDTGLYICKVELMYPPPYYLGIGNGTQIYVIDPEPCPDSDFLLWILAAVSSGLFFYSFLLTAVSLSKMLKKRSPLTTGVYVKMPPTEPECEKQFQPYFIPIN

Row | Binder | Ratio of PDL1:CD28 (human PD-L1 (human) [1]) | MFI at 33.3 nM (human PD-L1 (human) [2]) [MFI] | Fold change to WT CD80 (human PD-L1 (human) [3]) [fold] | MFI at 33.3 nM (human CTLA-4 (human) [4]) [MFI] | Fold change to WT CD80 (human CTLA-4 (human) [5]) [fold] | MFI at 33.3 nM (CD28 (human) [6]) [MFI] | Fold change to WT CD80 (CD28 (human) [7]) [fold] | Fold change to WT CD80 (CD28 (human) [8]) [fold] | MFI at 33.3 nM (CD28 (human) [8]) [MFI] | Fold change to WT CD80 (human PD-L1 (human) [9]) [fold] | MFI at 33.3 nM (human PD-L1 (human) [9]) [MFI] | Ratio of PDL1:CD28 (human PD-L1 (human) [10]) | Fold change to WT CD80 (human CTLA-4 (human) [11]) [fold] | MFI at 33.3 nM (human CTLA-4 (human) [11]) [MFI]
1 | B1 | 61.2 | 28400 | 222 | 26200 | 0.6 | 464 | 0.7 | – | – | – | – | – | – | –
2 | B2 | – | – | – | – | – | – | – | 65.1 | 2860 | 205 | 8930 | 3.1 | 17.3 | 23500
3 | B3 | – | – | – | – | – | – | – | 38.3 | 1680 | 160 | 6990 | 4.2 | 10.2 | 13900
4 | B4 | – | – | – | – | – | – | – | 2.3 | 99.4 | 158 | 6870 | 69.1 | 8.3 | 11300
5 | B5 | – | – | – | – | – | – | – | 35.3 | 1550 | 220 | 9580 | 6.2 | 13.4 | 18200
6 | B6 | – | – | – | – | – | – | – | 82.2 | 3610 | 714 | 31100 | 8.6 | 12.8 | 17400
7 | B7 | 6.5 | 2370 | 18.5 | 42100 | 1 | 366 | 0.5 | – | – | – | – | – | – | –
8 | B8 | – | – | – | – | – | – | – | 30.3 | 1330 | 277 | 12100 | 9.1 | 15.4 | 20900
9 | B9 | – | – | – | – | – | – | – | 44.5 | 1960 | 303 | 13200 | 6.8 | 16.2 | 22000
10 | B10 | – | – | – | – | – | – | – | 27.2 | 1190 | 73.3 | 3200 | 2.7 | 6.4 | 8670
11 | B11 | – | – | – | – | – | – | – | 77.8 | 3410 | 703 | 30700 | 9 | 16.4 | 22300
12 | B12 | – | – | – | – | – | – | – | 86.4 | 3800 | 499 | 21800 | 5.7 | 14 | 19000
13 | B13 | 14 | 5770 | 45 | 34700 | 0.9 | 411 | 0.6 | – | – | – | – | – | – | –
14 | B14 | – | – | – | – | – | – | – | 54.5 | 2390 | 295 | 12800 | 5.4 | 19 | 25800
15 | B15 | 33.7 | 6540 | 51.1 | 41300 | 1 | 194 | 0.3 | – | – | – | – | – | – | –
